According to the nanobody polyreactivity screen of Harvey et al. (2022):

Assay: yeast display, Sf9 membrane polyspecificity reagent, FACS + sequencing; frameworks hold sequencing errors
Procedure, shortened: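 Galactose-induced (36–48 hours) yeast carrying a synthetic nanobody display library were exposed to 10% biotinylated, detergent-solubilized Sf9 membrane reagent at 4 °C for 1 hour. FACS followed streptavidin microbead enrichment, using low and high (top ~1%) gates for expression (anti-HA) and reagent binding (streptavidin). Colony PCR, MiSeq 2 × 250 sequencing and CDR-length filtering followed. Labels for polyreactivity reflect the gate of origin.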
With “QVQLVESGGGLVQAGGSLRLSCAASGFTFLKYAMGWYIQAPGKERELVARITSGGRTYYADSVKGRFTISRDNAKNTVYLQMNSLKPEDTAVYYCNAVKSYASLYAGFYYWGQGTQVTVSS” the “polyreactivity (PSR sort gate)” value was “high polyreactivity”.
With “QVQLVESGGGLVQAGGSLRLSCAASGFTFLNYAMGWYRQAPGKERELVAAISFSTGRTYYADSVKGRFTISRDNAKNTVYLQMNSLKPEDTAVYYCYVLHRSDSGYYYRYDYWGQVTQVTVSS” the “polyreactivity (PSR sort gate)” value was “high polyreactivity”.
For “QVQLVESGGGLVQAGGSLRLSCAASGFTFLRYALGWYRQAPGKERELVAAISTSGGSTSYADSVKGRFTITRDNAKNTVYLQMNSLKPEDTAVYYCNAVLYKVSISEYDYWGQGTQVTVSS”, the “polyreactivity (PSR sort gate)” value was “high polyreactivity”.
With “QVQLVESGGGLVQAGGSLRLSCAASGFTFLRYAMGWYRQAPGKERELVAGITSRGASTYYADSVKGRFTISRDNAKTTVYLQINSLKPEDTAVYYCAADGSHTRYRYDYWGQGTQVTVSS” the “polyreactivity (PSR sort gate)” value was “high polyreactivity”.
For “QVQLVESGGGLVQAGGSLRLSCAASGFTFLSYTMGWYRQAPGKERELVASITASGTRTYYADSVKGRFTISRDNAKNTVYLQMNSLKPEDTAVYYCNRVGFDYWGQGTQVTVSS”, the “polyreactivity (PSR sort gate)” value was “low polyreactivity”.
In the case of “QVQLVESGGGLVQAGGSLRLSCAASGFTFLSYTMGWYSQAPGKERELVASITASGTRTYYADSVKGRFIISRDNAKNTVYLQMNRLKPEDTAVYYFAARWISVWSEGAEHDYWGQGTQVTVSS”, the “polyreactivity (PSR sort gate)” value is reported as “low polyreactivity”.
For “QVQLVESGGGLVQAGGSLRLSCAASGFTFLYNAMGWYRQAPGKERELVAAIDSGGMTNYADSVKGRFTISRDNAKNTVYLQMKSLKPEDTAVYYCAARFTQYITSDDGHYYYWGQGTQVTVSS”, the “polyreactivity (PSR sort gate)” value was “low polyreactivity”.
With “QVQLVESGGGLVQAGGSLRLSCAASGFTFLYNAMGWYRQAPVKERELVASINSGGSTNYADSVKGRFTISRDNAKNTVYLQMNSLKPEDTAVYYCNAKRHVRKGDYWGLGTQVTVSS” the “polyreactivity (PSR sort gate)” value was “low polyreactivity”.
For “QVQLVESGGGLVQAGGSLRLSCAASGFTFLYNVMGWYRQAPGKERELVAAISQSGTDTYYADSVKGRFTISRDNAKNTVYLQKNSLKPEDTAVYYCATEYYSQPRDDYWGQGTQVTVSS”, the “polyreactivity (PSR sort gate)” value was “low polyreactivity”.
In the case of “QVQLVESGGGLVQAGGSLRLSCAASGFTFLYYDMGWYRQAPGKERELVAAITNDDSTYYADSVKGRFTISRDNAKNTVYLQMNSLKPEDTAVYYCAADSVYGSDEYWGQGTQVTVSS”, the “polyreactivity (PSR sort gate)” value is reported as “high polyreactivity”.
With “QVQLVESGGGLVQAGGSLRLSCAASGFTFNANAMGWYRQAPGKERELVAFITRSGGRTYYADSVKGRFTISRDNAKNTVYLQMNSLKPEDTAVYYCAKEGPSRVYQGTDSASDYWGQGTQVTVSS” the “polyreactivity (PSR sort gate)” value was “high polyreactivity”.
With “QVQLVESGGGLVQAGGSLRLSCAASGFTFNRNAMGWYIQAPGKERELVAAISWSGGSTYYADSVKGRFTISRDNAKNTVYLQMNSLKPQDTEVYYCAKGYRRVYGPFYFWGQGTQVTVSS” the “polyreactivity (PSR sort gate)” value was “low polyreactivity”.
For “QVQLVESGGGLVQAGGSLRLSCAASGFTFNRYAMAWDRQAPGKERELVATITSGGNTYYADSVKGRFTIARDNAKNTVYLQMNSLKPEDTAVYYCNQLGWYSVYRRDYWGQGTQVTVSS”, the “polyreactivity (PSR sort gate)” value was “high polyreactivity”.
For “QVQLVESGGGLVQAGGSLRLSCAASGFTFNRYAMGWYIEAPGKERELVASITTGGRTNYADSVKGRFTISRDNAKNTVYLQMNSLKPVDTAVYYCAADYCYFYRYYYWGQGTQVTVSS”, the “polyreactivity (PSR sort gate)” value was “high polyreactivity”.
In the case of “QVQLVESGGGLVQAGGSLRLSCAASGFTFNRYAMGWYRPAPGKERELVAAISRSTATTYYADSVKGRFTISRDNAMNTVYLQMNSLKPEDTAVFYCNSPQRYWPPYGYWGQGTQVTVSS”, the “polyreactivity (PSR sort gate)” value is reported as “high polyreactivity”.
In the case of “QVQLVESGGGLVQAGGSLRLSCAASGFTFNRYAMGWYRQAPGKERELVAAISWSGTSTYYADSVKGRFTISRDNAKNTVYLQMNSLKPEDPAVYYCAAYPALTGGLPKSRGYYWGQGTQVTVSS”, the “polyreactivity (PSR sort gate)” value is reported as “high polyreactivity”.
In the case of “QVQLVESGGGLVQAGGSLRLSCAASGFTFNRYAMGWYRQAPGKERELVARITRGGSTKYADSVKGRFTISRDNAKNTVYLQMNSLKPEDTAVYYCAADYGGFLGYDYWGQGTQVTVSS”, the “polyreactivity (PSR sort gate)” value is reported as “high polyreactivity”.
With “QVQLVESGGGLVQAGGSLRLSCAASGFTFNRYAMGWYRQAPGKERELVATITSGGNTYYADSVKGRFTISRDNAKNTVYLQMNSLKPEDTAVYYCNKRGWYSVYRRDYWGQGTQVTVSS” the “polyreactivity (PSR sort gate)” value was “high polyreactivity”.
In the case of “QVQLVESGGGLVQAGGSLRLSCAASGFTFNRYVMGWYRQAPGKERELVAAIDSGDSTYYADSVKGRFTISRDNAKNTVYLQMNSLKPEDTAVFYCAAEFKSKFFSDIFDNDYDYWGQGTQVSVSS”, the “polyreactivity (PSR sort gate)” value is reported as “high polyreactivity”.
For “QVQLVESGGGLVQAGGSLRLSCAASGFTFNSYDMYWVRQAPGKGLEWVSSINTNGGSTYYADSVKGRFTISRDNAKNTVYLQMNSLKPEDTAVYYCAADGDTVGHSYRYDYWGQGTQVTVSS”, the “polyreactivity (PSR sort gate)” value was “low polyreactivity”.
In the case of “QVQLVESGGGLVQAGGSLRLSCAASGFTFNYNTMGWYRQAPGKERELVARISRSGGRTYYADSVKGRFTISRDNAKNTVYLQMNSLKPEDTAVYYCNTDYYGVRHRYDYWGQGTQVTVSS”, the “polyreactivity (PSR sort gate)” value is reported as “high polyreactivity”.
With “QVQLVESGGGLVQAGGSLRLSCAASGFTFNYYAMGSYRQAPGKERELVAAITWRSGRTSYADSVKGRFTISRDNAKNTVYLQMNSLKPEDTAVYYCAKYPIYSGLTRYGYWGQGTQVTVSS” the “polyreactivity (PSR sort gate)” value was “high polyreactivity”.
In the case of “QVQLVESGGGLVQAGGSLRLSCAASGFTFNYYAMGWYRQAPGKERELVAAISRSGGNTYYADSVKGRFTISRDNAKNTVYLQMNSLKPEDTAVYYCAAYLRSYVRYYYWGQGTQVTVSS”, the “polyreactivity (PSR sort gate)” value is reported as “high polyreactivity”.
With “QVQLVESGGGLVQAGGSLRLSCAASGFTFNYYPMGWYRQAPGKERELVAAIDSGGNTYYADSVKGRFTISRDNAKNTVYLQMNSLKPEDTAVYYCAAYRDYQYDFWGQGTQVTVSS” the “polyreactivity (PSR sort gate)” value was “low polyreactivity”.
For “QVQLVESGGGLVQAGGSLRLSCAASGFTFPDYAMGWYRQAPGKERELVAAISSDGSTYYADSVKGPFTISRDNAKNTVYLQMNSLKPEDTAVYYCAAYVVWLYGDDYWGQGTQVTVSS”, the “polyreactivity (PSR sort gate)” value was “low polyreactivity”.
For “QVQLVESGGGLVQAGGSLRLSCAASGFTFPEYSMGWYRQAPGKERELVAAITRRGTTTYYADSVKGRFTISRYTAKNTVYLQMNILKPEDTAVYYCAALAWSAYDYWGQGTQVTVSS”, the “polyreactivity (PSR sort gate)” value was “high polyreactivity”.
With “QVQLVESGGGLVQAGGSLRLSCAASGFTFPFYTMGWYRQAPGKERELVAAISRSGASTFYADSVKGRFTISRDNAKNTGYLQMNSLKPEDTAVYYCAGRRGYAPYEYWGQGTQVTVSS” the “polyreactivity (PSR sort gate)” value was “high polyreactivity”.
With “QVQLVESGGGLVQAGGSLRLSCAASGFTFPFYTMGWYRQAPGKERELVAAITRSGASTFYADSVKGRFTISRDNAKNTVYLQMNSLKPEDTAVYYCAARRGYAPYEYWGQGTQVNVSS” the “polyreactivity (PSR sort gate)” value was “high polyreactivity”.
In the case of “QVQLVESGGGLVQAGGSLRLSCAASGFTFPFYTMGWYRQAPGKERELVAAITRSGASTFYADSVKGRFTISRDNAMNTVYLQMNSLKPEDTAVYYCATQLHRYYQDDYWGQGTQVTVSS”, the “polyreactivity (PSR sort gate)” value is reported as “high polyreactivity”.
In the case of “QVQLVESGGGLVQAGGSLRLSCAASGFTFPGDAMGWYRQAPGKERELVAAIDTSGGNTYADSVKGRFTISRDNAKNTVYLQMNSLKPEDTAVYYCAADYYYVYSSFGHYYWGQGTQVTVSS”, the “polyreactivity (PSR sort gate)” value is reported as “low polyreactivity”.
For “QVQLVESGGGLVQAGGSLRLSCAASGFTFPGYAMGWYRQAPGKERELVAAISKRGGSTYYADSVKGRFTISRDNAKNTVYLQMNSLKPEDTAVYYCAKSRRGSFYYPYTYTKSGYEYWGQGTQVTVSS”, the “polyreactivity (PSR sort gate)” value was “high polyreactivity”.
With “QVQLVESGGGLVQAGGSLRLSCAASGFTFPGYAMGWYRQAPGKERELVAAISSSGGSTYYADSVKGRFTISRDNAKNTVYLQMNSLKPEDTAVYYCAARHGQSWQWLEYDYWGQGTQVTVSS” the “polyreactivity (PSR sort gate)” value was “low polyreactivity”.
With “QVQLVESGGGLVQAGGSLRLSCAASGFTFPGYTKGWYIQAPGKERELVATISRSGGSMFYADSVKGRFTISRDNAKNTVYLQMNSLKPEDTAVYYCNKSPSWWRYKTGLDYWGQGTQVTVSS” the “polyreactivity (PSR sort gate)” value was “high polyreactivity”.
For “QVQLVESGGGLVQAGGSLRLSCAASGFTFPKYAMGWYRQAPGKERELVAGITTGGSTYYADSVKGRFTISRDNAKNTVYLQMNSLKPEDTAVYYCAASGRLSLGGRFYDLGLRYDYWGQGTQVTVSS”, the “polyreactivity (PSR sort gate)” value was “low polyreactivity”.
In the case of “QVQLVESGGGLVQAGGSLRLSCAASGFTFPLNAMGWYRQAPGKEREFVAAITYSGGGTYYADSVKGRFTISRDNAKNTVYLQMNSLKPEDTAVYYCAAERGYQAHPGQGDYWGQGTQVTVSS”, the “polyreactivity (PSR sort gate)” value is reported as “high polyreactivity”.
For “QVQLVESGGGLVQAGGSLRLSCAASGFTFPRNAMGCYRQAPGKERELVAGISKSGGSTYYADSVKGRFTISRDNAKNTVYLQMNSLKPEDTAVYYCAKAVNSPRKYQLGNGYWGQGTQVTVSS”, the “polyreactivity (PSR sort gate)” value was “high polyreactivity”.
In the case of “QVQLVESGGGLVQAGGSLRLSCAASGFTFPRYAMGWYREAPGKEREFVAAINRGGSTYYADSVKGRFTISRDNAKNTVYLQMNSLKPEDTAVYYCITDRKNRPSPGDYYWGQGTQVTVSS”, the “polyreactivity (PSR sort gate)” value is reported as “low polyreactivity”.
For “QVQLVESGGGLVQAGGSLRLSCAASGFTFPRYAMGWYRQAPGKERELVAAITSGDRTYYADSVKGRFTISRDNAKNTVYLQMNSLKPEDTAVYYCATSSRYRYWHRYDYWGLGTQVTVSS”, the “polyreactivity (PSR sort gate)” value was “high polyreactivity”.
For “QVQLVESGGGLVQAGGSLRLSCAASGFTFPVNAMGWYRQAPGKERELVATINSGGSTNYADSVKGRFTISRDNAKNTVYLQMNSLKPEDTAVYYCAAVTTDGVYAFDYWGQGTQVTVSS”, the “polyreactivity (PSR sort gate)” value was “low polyreactivity”.
For “QVQLVESGGGLVQAGGSLRLSCAASGFTFPVYAMGWYREAPGKERELVAAISTSAGSTYYADSVKGRFSISRDNAKNTVYLQLNSLKPEDTAVYYCNADVAGGYGWKSYHGYDYWGQGTQVTVSS”, the “polyreactivity (PSR sort gate)” value was “high polyreactivity”.
In the case of “QVQLVESGGGLVQAGGSLRLSCAASGFTFPWNVMGWYRQAPGKEREFVAAISKSAGSTFYADSVKGRFTISRDNAKNTVYLQMNSLKPEDTAVYYCAKPRVPGVHVQEMYYWGQGTQVTVSS”, the “polyreactivity (PSR sort gate)” value is reported as “low polyreactivity”.
With “QVQLVESGGGLVQAGGSLRLSCAASGFTFPWYAMGWDRQAPGKERELVASISYRGDSTYYADSVKGRFTFSRDNAKNTVYLQMNSLKPEDTAVYYCNKRLASYYLPGFDYWGQGTQVSVSS” the “polyreactivity (PSR sort gate)” value was “low polyreactivity”.
For “QVQLVESGGGLVQAGGSLRLSCAASGFTFPWYAMGWYRQAPGKERELVAAISTSGDSTYYADSVKGRFTISRDNAKNTVYLQMNSLKPEDTAVYYCAARVVRGRYGYWGQGTQVTVSS”, the “polyreactivity (PSR sort gate)” value was “high polyreactivity”.
